Source: article PMC7595626
pKd: −log10 of the molar value.

Target: His6-tagged Casp8p41 protein
Test: SPR; Casp8p41 immobilised on a CM5 chip (6000-7000 RU); BCL2 or phospho-S70-BCL2 flowed over; 25°C; 150 mM NaCl, 0.05 mM EDTA, 0.005% Polysorbate 20, 10 mM Hepes pH 7.4; steady state affinity fit, 1:1 model; Biacore T200

Substance: phospho-S70-BCL2 (domain or fragment)
- pKd: 7.40

Substance: BCL2ΔTM-His6 (domain or fragment)
- pKd: 6.59
